Tested on: MS2 coat protein
Test: apparent KD of MS2 coat protein; designed switch direction (-1 OFF switch, 1 ON switch): -1; higher = weaker reporter binding
Method in brief: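 For each design, the apparent KD is the median over clusters of curves fitted to normalised cluster fluorescence. Clusters held RNA switches with common flanks, transcribed on Illumina chips by stalled E. coli RNA polymerase. These were titrated with SNAP-549-labelled MS2 coat protein, doubling from 0.7 or 1.5 nM to 3 µM, without input, with 200 uM small-molecule ligand, or with an oligonucleotide input.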

[1] = input ligand: microRNA oligo, concentration not stated
[2] = Eterna round: R95, input ligand: FMN 200 uM
[3] = Eterna round: R95, input ligand: microRNA oligo, concentration not stated
[4] = Eterna round: R95, input ligand: none

With “AGCUGUGGCCGAGGAUAUGACAUGAGGAUCACCCAUGUACAAGAUUAGGCCUGGUAACAGGCUCAUCAGAAGGCGGUCUCAGCA [Eli eng2 - 015] (Eterna round: R96, puzzle: Exclusion NG 2)” the “apparent KD of MS2 coat protein” value (input ligand: FMN 200 uM) was 0.01 µM, the “apparent KD of MS2 coat protein” value [1] was 0.00952 µM and the “apparent KD of MS2 coat protein” value (input ligand: none) was 0.0139 µM.
With “AGCUGUGGCCGAGGAUAUGCUACUUCAAUAACCGAAAUAUAAUCGGACAUGAGGAUCACCCAUGUAGAGAAGGCGGUCUCAGCA [Eli eng2 - 085] (Eterna round: R96, puzzle: Exclusion NG 2)” the “apparent KD of MS2 coat protein” value [1] was 0.0103 µM.
With “AGGAAGCAAGGAUAUACGAGGAGAAGGUGUAGAUUUAAAGGACAUGAGGAUCACCCAUGUAGAAGGUGCGAGAA [JR_Exclu2_Sub047] (puzzle: Exclusion 2)” the “apparent KD of MS2 coat protein” value [2] was 0.0627 µM, the “apparent KD of MS2 coat protein” value [3] was 0.0318 µM and the “apparent KD of MS2 coat protein” value [4] was 0.0414 µM.
In the case of “AGGAAGCAAGGAUAUACGAGGAGAAGGUGUCGAUUUAAAGGACAUGAGGAUCACCCAUGUAGAAGGUGCGAGAA [JR_Exclu2_Sub048] (puzzle: Exclusion 2)”, the “apparent KD of MS2 coat protein” value [2] was 0.11 µM, the “apparent KD of MS2 coat protein” value [3] was 0.0836 µM and the “apparent KD of MS2 coat protein” value [4] was 0.0958 µM.
“AGGACAUCAGGCGGCAUGUACAUGAGGAUCACCCAUGUCCUAGAAAGCUGUAUGCUCGUCUUAGGCCCAACCUCGCU [Eternabot (Original) Solution 13] (Eterna round: R97, puzzle: Sensor, turn-off variant 1)” was tested, and the “apparent KD of MS2 coat protein” value (input ligand: FMN 200 uM) was 0.0651 µM and the “apparent KD of MS2 coat protein” value (input ligand: none) was 0.061 µM.
With “AGGAUGUGAGGAUAUCCAUCCCGCGAAUACGGGUAAUAAAUGGAGAAGGCACAUGAGGAUCACCCAUGUGAUGA [Ceersois] (Eterna round: R97, puzzle: Exclusion 4)” the “apparent KD of MS2 coat protein” value (input ligand: FMN 200 uM) was 0.262 µM and the “apparent KD of MS2 coat protein” value (input ligand: none) was 0.0541 µM.
For “AGGAUGUUAGGAUAUCGGAGAUGCGGGAGGAGGUGGAGGUACGAGAAGGAACAUGAGGAUCACCCAUGUGGAAG [JR_Exclu4_Sub045] (puzzle: Exclusion 4)”, the “apparent KD of MS2 coat protein” value [3] was 0.0184 µM.
For “AGGAUGUUAGGAUAUCGGAGAUGCUGGAGGAGGUGGAUUUACGAGAAGGAACAUGAGGAUCACCCAUGUGGAAG [JR_Exclu4_Sub046] (puzzle: Exclusion 4)”, the “apparent KD of MS2 coat protein” value [2] was 0.0351 µM, the “apparent KD of MS2 coat protein” value [3] was 0.0258 µM and the “apparent KD of MS2 coat protein” value [4] was 0.0272 µM.
In the case of “AGGCGGAAAGUAAGGAUAUCUUGACCAAAGGGUUGAGAGAAGGUACAUGAGGAUCACCCAUGUGGUGACCGCCA [Morphing Claw (Vienna)] (Eterna round: R97, puzzle: Brourd's mod of Exclusion 4)”, the “apparent KD of MS2 coat protein” value (input ligand: FMN 200 uM) was 0.228 µM and the “apparent KD of MS2 coat protein” value (input ligand: none) was 0.685 µM.
In the case of “AGGCGGACAUCUAAUACUCACAUGAGGAUCACCCAUGUUUGACCAAAUAUACAGGCCGGUUUGCUUAGUCUUACUUG [Eternabot (L2) Solution 43] (Eterna round: R97, puzzle: Sensor, turn-off variant 1)”, the “apparent KD of MS2 coat protein” value (input ligand: FMN 200 uM) was 0.0408 µM and the “apparent KD of MS2 coat protein” value (input ligand: none) was 0.0492 µM.
“AGGGACGUAGGAUAUACCGUGUAGUACAUGAGGAUCACCCAUGUUUGCCUCAUAGUCCACGUAGAAGGAUGUGACA [Eternabot (L2) Solution 37] (Eterna round: R97, puzzle: Exclusion 5)” was tested, and the “apparent KD of MS2 coat protein” value (input ligand: FMN 200 uM) was 0.0709 µM and the “apparent KD of MS2 coat protein” value (input ligand: none) was 0.0641 µM.
With “AGGGAUAAAGGAUAUACAUGAGGAUCACCCAUGUUGAGGAAGGUUAGAGGUGGCGAUAGUAGAAGGUUAGGUAG [JR_Exclu3_Sub081] (puzzle: Exclusion 3)” the “apparent KD of MS2 coat protein” value [3] was 0.077 µM.
“AGGGCGGGAGGAUAUCCAAUAUAUGACAUGAGGAUCACCCAUGUUUCCACUCGUACCUCCGGAGAAGGCCCGCCGA [Ex5 #25] (Eterna round: R97, puzzle: Exclusion 5)” was tested, and the “apparent KD of MS2 coat protein” value (input ligand: FMN 200 uM) was 0.0212 µM and the “apparent KD of MS2 coat protein” value (input ligand: none) was 0.0215 µM.
With “AGGGCUGCUCAGGAUAUCCGUAAAAGCCGAGAAGGAGAAGGGAGCACAUGAGGAUCACCCAUGUGAUCCGAAAA [Verila] (puzzle: Exclusion 6)” the “apparent KD of MS2 coat protein” value [3] was 0.0197 µM.
“AGGUAGUCAGGAUAUUAAGAGUAGCGGGAUAACGCUACGAGUGAGAAGGGACAUGAGGAUCACCCAUGUUUUAA [JR_Ex4_Sub071] (Eterna round: R97, puzzle: Exclusion 4)” was tested, and the “apparent KD of MS2 coat protein” value (input ligand: FMN 200 uM) was 0.0234 µM and the “apparent KD of MS2 coat protein” value (input ligand: none) was 0.0232 µM.
“AGGUCCUUCUGGACACAUGAGGAUCACCCAUGUGAGGUCAGCGAGGAUAUCGGUCUAUAAUGUGACGAGAAGGCGCGGACCGAU [Ex NG3 #59] (Eterna round: R96, puzzle: Exclusion NG 3)” was tested, and the “apparent KD of MS2 coat protein” value (input ligand: FMN 200 uM) was 0.0168 µM, the “apparent KD of MS2 coat protein” value [1] was 0.0113 µM and the “apparent KD of MS2 coat protein” value (input ligand: none) was 0.0164 µM.

— the supplement of paper PMC9170038
